# From paper PMC3149649, “Evidence for a Two-Metal-Ion Mechanism in the Cytidyltransferase KdsB, an Enzyme Involved in Lipopolysaccharide Biosynthesis” (PLoS ONE, 2011)
# B1: LPS-specific CMP-Kdo synthetase (KdsB) from Aquifex aeolicus (enzyme)
# chain: MRRAVIIPARLGSTRLKEKPLKNLLGKPLIRWVVEGLVKTGERVILATDSERVKEVVEDLCEVFLTPSDLPSGSDRVLYVVRDLDVDLIINYQGDEPFVYEEDIKLIFRELEKGERVVTLARKDKEAYERPEDVKVVLDREGYALYFSRSPIPYFRKNDTFYPLKHVGIYGFRKETLMEFGAMPPSKLEQIEGLEQLRLLENGIKIKVLITENYYHGVDTEEDLKIVEEKLKNL
# notes: CMP-Kdo synthetase KdsB (EC 2.7.7.38) of Aquifex aeolicus; the structure describes residues 2-234 (N-terminal domain 2-91 and 220-234, C-terminal domain 100-210); monomer 27 kDa by SDS-PAGE; No tag is mentioned; In the crystal the protein carries CTP and two Mg2+ ions; also called AA-LCKS; CKS
# Target: the molecule itself
# Assay: SEC; analytical gel filtration chromatography of purified AA-LCKS; conditions not given
protein,measurement,value
B1,stoichiometry N,2
